Assay results reported in PMC2408616, “Modular Organization and Combinatorial Energetics of Proline–Tyrosine Nuclear Localization Signals” (PLoS Biology, 2008).
Where no end group is shown, it is not given here. MBP = not defined here

Molecular target: T1, Kap104p (yeast (S. cerevisiae), UniProt P38217 1-918)
T1 construct: Kap104p, yeast homolog of Kapβ2; gene a gift from J. Aitchison, subcloned into pGEX-Tev; also called yeast Karyopherin β2 homolog; source: E. coli Rosetta(DE3)pLysS, purified (glutathione sepharose, TEV cleavage, anion exchange, gel filtration)
T1 sequence (looked up): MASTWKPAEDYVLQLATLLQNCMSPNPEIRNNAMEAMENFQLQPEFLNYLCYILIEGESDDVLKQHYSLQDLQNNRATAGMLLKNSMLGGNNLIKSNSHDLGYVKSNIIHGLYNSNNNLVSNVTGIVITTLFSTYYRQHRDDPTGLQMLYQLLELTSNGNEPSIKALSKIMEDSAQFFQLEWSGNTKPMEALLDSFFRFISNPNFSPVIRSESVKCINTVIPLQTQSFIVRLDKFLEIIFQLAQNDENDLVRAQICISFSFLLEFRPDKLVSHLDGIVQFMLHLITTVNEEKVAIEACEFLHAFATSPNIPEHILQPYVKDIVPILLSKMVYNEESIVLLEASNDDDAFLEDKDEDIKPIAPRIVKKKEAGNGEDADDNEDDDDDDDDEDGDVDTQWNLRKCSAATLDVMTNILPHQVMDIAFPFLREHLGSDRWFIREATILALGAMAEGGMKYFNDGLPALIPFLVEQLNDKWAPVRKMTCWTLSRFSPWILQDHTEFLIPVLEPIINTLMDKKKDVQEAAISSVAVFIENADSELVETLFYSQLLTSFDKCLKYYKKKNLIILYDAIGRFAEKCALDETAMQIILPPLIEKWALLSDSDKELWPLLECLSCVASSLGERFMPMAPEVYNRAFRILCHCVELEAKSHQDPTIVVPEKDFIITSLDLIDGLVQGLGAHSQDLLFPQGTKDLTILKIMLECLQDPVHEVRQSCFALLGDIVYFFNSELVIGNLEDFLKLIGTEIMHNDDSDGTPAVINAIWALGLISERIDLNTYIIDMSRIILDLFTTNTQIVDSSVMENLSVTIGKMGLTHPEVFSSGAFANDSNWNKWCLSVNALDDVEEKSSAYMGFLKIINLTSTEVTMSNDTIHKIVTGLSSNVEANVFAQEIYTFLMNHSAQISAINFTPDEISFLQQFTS
Experiment: ITC; 90–350 μM MBP-NLS titrated into 9–35 μM Kap104p in the cell; 20 °C; 20 mM Tris pH 7.5, 100 mM NaCl, 2 mM β-mercaptoethanol, 10% glycerol; 35 injections of 8 μl; single-site model
Details: both partners purified

| Binder | KD,mutant/KD,wild type | binding result | other results |
| --- | --- | --- | --- |
| MBP–Nab2p NLS R235K (domain or fragment, S. cerevisiae, UniProt P32505 201-251, looked up, Nab2p NLS, residues 201-251; also called R235 to lysine; source: E. coli BL21(DE3), purified (amylose resin, cation exchange)) DNSQRFTQRGGGAVGKNRRGGRGGNRGGRNNNSTKFNPLAKALGMAGESNM | 1 | – | – |
| MBP–Nab2p NLS L239W (domain or fragment, S. cerevisiae, UniProt P32505 201-251, looked up, Nab2p NLS, residues 201-251; also called L239 to W; source: E. coli BL21(DE3), purified (amylose resin, cation exchange)) DNSQRFTQRGGGAVGKNRRGGRGGNRGGRNNNSTRFNPWAKALGMAGESNM | – | binds | – |
| MBP–Nab2p NLS R235H (domain or fragment, S. cerevisiae, UniProt P32505 201-251, looked up, Nab2p NLS, residues 201-251; also called R235 to histidine; source: E. coli BL21(DE3), purified (amylose resin, cation exchange)) DNSQRFTQRGGGAVGKNRRGGRGGNRGGRNNNSTHFNPLAKALGMAGESNM | 1.7 | – | – |
| MBP–Nab2p NLS L239Q (domain or fragment, S. cerevisiae, UniProt P32505 201-251, looked up, Nab2p NLS, residues 201-251; also called L239 to Q; source: E. coli BL21(DE3), purified (amylose resin, cation exchange)) DNSQRFTQRGGGAVGKNRRGGRGGNRGGRNNNSTRFNPQAKALGMAGESNM | – | binds | – |
| MBP–Nab2p NLS K216A (domain or fragment, S. cerevisiae, UniProt P32505 201-251, looked up, Nab2p NLS, residues 201-251; source: E. coli BL21(DE3), purified (amylose resin, cation exchange)) DNSQRFTQRGGGAVGANRRGGRGGNRGGRNNNSTRFNPLAKALGMAGESNM | – | binds | – |
| MBP–Nab2p NLS R235A (domain or fragment, S. cerevisiae, UniProt P32505 201-251, looked up, Nab2p NLS, residues 201-251; source: E. coli BL21(DE3), purified (amylose resin, cation exchange)) DNSQRFTQRGGGAVGKNRRGGRGGNRGGRNNNSTAFNPLAKALGMAGESNM | 5.5 | – | – |
| MBP–Nab2p NLS R222A, 238PL239/AA (domain or fragment, S. cerevisiae, UniProt P32505 201-251, looked up, Nab2p NLS, residues 201-251; source: E. coli BL21(DE3), purified (amylose resin, cation exchange)) DNSQRFTQRGGGAVGKNRRGGAGGNRGGRNNNSTRFNAAAKALGMAGESNM | – | – | Kd: 411 nM |
| MBP–Nab2p NLS L239H (domain or fragment, S. cerevisiae, UniProt P32505 201-251, looked up, Nab2p NLS, residues 201-251; also called L239 to H; source: E. coli BL21(DE3), purified (amylose resin, cation exchange)) DNSQRFTQRGGGAVGKNRRGGRGGNRGGRNNNSTRFNPHAKALGMAGESNM | – | binds | – |
| MBP–Nab2p NLS L239K (domain or fragment, S. cerevisiae, UniProt P32505 201-251, looked up, Nab2p NLS, residues 201-251; also called L239 to K; source: E. coli BL21(DE3), purified (amylose resin, cation exchange)) DNSQRFTQRGGGAVGKNRRGGRGGNRGGRNNNSTRFNPKAKALGMAGESNM | – | binds | – |
| MBP–Nab2p NLS L239G (domain or fragment, S. cerevisiae, UniProt P32505 201-251, looked up, Nab2p NLS, residues 201-251; source: E. coli BL21(DE3), purified (amylose resin, cation exchange)) DNSQRFTQRGGGAVGKNRRGGRGGNRGGRNNNSTRFNPGAKALGMAGESNM | – | binds | – |
| MBP–Nab2p NLS L239T (domain or fragment, S. cerevisiae, UniProt P32505 201-251, looked up, Nab2p NLS, residues 201-251; also called L239 to T; source: E. coli BL21(DE3), purified (amylose resin, cation exchange)) DNSQRFTQRGGGAVGKNRRGGRGGNRGGRNNNSTRFNPTAKALGMAGESNM | – | binds | – |
| MBP–Nab2p NLS R218A (domain or fragment, S. cerevisiae, UniProt P32505 201-251, looked up, Nab2p NLS, residues 201-251; source: E. coli BL21(DE3), purified (amylose resin, cation exchange)) DNSQRFTQRGGGAVGKNARGGRGGNRGGRNNNSTRFNPLAKALGMAGESNM | ~1 | – | – |
| MBP–Nab2p NLS R219A (domain or fragment, S. cerevisiae, UniProt P32505 201-251, looked up, Nab2p NLS, residues 201-251; source: E. coli BL21(DE3), purified (amylose resin, cation exchange)) DNSQRFTQRGGGAVGKNRAGGRGGNRGGRNNNSTRFNPLAKALGMAGESNM | ~1 | – | – |
| MBP–Nab2p NLS R222A (domain or fragment, S. cerevisiae, UniProt P32505 201-251, looked up, Nab2p NLS, residues 201-251; source: E. coli BL21(DE3), purified (amylose resin, cation exchange)) DNSQRFTQRGGGAVGKNRRGGAGGNRGGRNNNSTRFNPLAKALGMAGESNM | ~1 | – | – |
| MBP–Nab2p NLS L239M (domain or fragment, S. cerevisiae, UniProt P32505 201-251, looked up, Nab2p NLS, residues 201-251; also called L239 to M; source: E. coli BL21(DE3), purified (amylose resin, cation exchange)) DNSQRFTQRGGGAVGKNRRGGRGGNRGGRNNNSTRFNPMAKALGMAGESNM | – | binds | – |
| MBP–Nab2p NLS R218, R219, R222, R226, R229/AAAAA (domain or fragment, S. cerevisiae, UniProt P32505 201-251, looked up, Nab2p NLS, residues 201-251; also called pentamutant; source: E. coli BL21(DE3), purified (amylose resin, cation exchange)) DNSQRFTQRGGGAVGKNAAGGAGGNAGGANNNSTRFNPLAKALGMAGESNM | – | – | Kd: 2250 nM |
| MBP–Nab2p NLS L239N (domain or fragment, S. cerevisiae, UniProt P32505 201-251, looked up, Nab2p NLS, residues 201-251; also called L239 to N; source: E. coli BL21(DE3), purified (amylose resin, cation exchange)) DNSQRFTQRGGGAVGKNRRGGRGGNRGGRNNNSTRFNPNAKALGMAGESNM | – | binds | – |
| MBP–Nab2p NLS L239V (domain or fragment, S. cerevisiae, UniProt P32505 201-251, looked up, Nab2p NLS, residues 201-251; also called L239 to V; source: E. coli BL21(DE3), purified (amylose resin, cation exchange)) DNSQRFTQRGGGAVGKNRRGGRGGNRGGRNNNSTRFNPVAKALGMAGESNM | – | binds | – |
| MBP–Nab2p NLS 238PL239/PY (domain or fragment, S. cerevisiae, UniProt P32505 201-251, looked up, reading uncertain, Nab2p NLS, residues 201-251; also called L239Y; source: E. coli BL21(DE3), purified (amylose resin, cation exchange)) {MBP}-DNSQRFTQRGGGAVGKNRRGGRGGNRGGRNNNSTRFNPYAKALGMAGESNM | – | – | Kd: 13 nM |
| MBP–Nab2p NLS L239S (domain or fragment, S. cerevisiae, UniProt P32505 201-251, looked up, Nab2p NLS, residues 201-251; also called L239 to S; source: E. coli BL21(DE3), purified (amylose resin, cation exchange)) DNSQRFTQRGGGAVGKNRRGGRGGNRGGRNNNSTRFNPSAKALGMAGESNM | – | binds | – |
